B1: Compound 50a (peptide)
peptide: {CH2CO}-FNFEDQSPDTWQ[Pro(cis-4-Ph)]CG-NH2
modifications: thioether N-14
B2: Compound 75a (peptide)
peptide: {CH2CO}-FNFEDQS[Aze]DTWQPCG-NH2
modifications: thioether N-14
B3: Compound 13a (peptide)
peptide: {CH2CO}-FNFEDQSPDTWQPCGGK(NOTA‑1)-NH2
modifications: thioether N-14
B4: Compound 54a (peptide)
peptide: {CH2CO}-[Phe(4-F)]NFEDQSPDTWQPCG-NH2
modifications: thioether N-14
SMILES: C[C@@H](O)[C@@H]1NC(=O)[C@H](CC(=O)O)NC(=O)[C@@H]2CCCN2C(=O)[C@H](CO)NC(=O)[C@H](CCC(N)=O)NC(=O)[C@H](CC(=O)O)NC(=O)[C@H](CCC(=O)O)NC(=O)[C@H](Cc2ccccc2)NC(=O)[C@H](CC(N)=O)NC(=O)[C@H](Cc2ccc(F)cc2)NC(=O)CSC[C@@H](C(=O)NCC(N)=O)NC(=O)[C@@H]2CCCN2C(=O)[C@H](CCC(N)=O)NC(=O)[C@H](Cc2c[nH]c3ccccc23)NC1=O
B5: Compound 64a (peptide)
peptide: {CH2CO}-FNFEDQS[Tic]DTWQPCG-NH2
modifications: thioether N-14
SMILES: C[C@@H](O)[C@@H]1NC(=O)[C@H](CC(=O)O)NC(=O)[C@@H]2Cc3ccccc3CN2C(=O)[C@H](CO)NC(=O)[C@H](CCC(N)=O)NC(=O)[C@H](CC(=O)O)NC(=O)[C@H](CCC(=O)O)NC(=O)[C@H](Cc2ccccc2)NC(=O)[C@H](CC(N)=O)NC(=O)[C@H](Cc2ccccc2)NC(=O)CSC[C@@H](C(=O)NCC(N)=O)NC(=O)[C@@H]2CCCN2C(=O)[C@H](CCC(N)=O)NC(=O)[C@H](Cc2c[nH]c3ccccc23)NC1=O
B6: Compound 71a (peptide)
peptide: {CH2CO}-FNFEDQSPDTWQ[Pip]CG-NH2
modifications: thioether N-14
notes: also called 71aa
B7: Compound 76a (peptide)
peptide: {CH2CO}-FNFEDQS[Pip]DTWQPCG-NH2
modifications: thioether N-14
B8: Compound 43a (peptide)
peptide: {CH2CO}-[Phe(4-Me)]NFEDQSPDTWQPCG-NH2
modifications: thioether N-14
B9: Compound 3a (peptide)
peptide: {CH2CO}-FNFEDQSADTWQPCGGK(RESCA‑1)-NH2
modifications: thioether N-14
B10: Compound 16a (peptide)
peptide: {CH2CO}-FNFEDQSADTWQPCGGK(Peg4)-NH2
modifications: thioether N-14
B11: Compound 23a (peptide)
peptide: {CH2CO}-FNFEDQSVDTWQPCGGK-NH2
modifications: thioether N-14
SMILES: CC(C)[C@@H]1NC(=O)[C@H](CO)NC(=O)[C@H](CCC(N)=O)NC(=O)[C@H](CC(=O)O)NC(=O)[C@H](CCC(=O)O)NC(=O)[C@H](Cc2ccccc2)NC(=O)[C@H](CC(N)=O)NC(=O)[C@H](Cc2ccccc2)NC(=O)CSC[C@@H](C(=O)NCC(=O)NCC(=O)N[C@@H](CCCCN)C(N)=O)NC(=O)[C@@H]2CCCN2C(=O)[C@H](CCC(N)=O)NC(=O)[C@H](Cc2c[nH]c3ccccc23)NC(=O)[C@H]([C@@H](C)O)NC(=O)[C@H](CC(=O)O)NC1=O
B12: Compound 4a (peptide)
peptide: {CH2CO}-FNFEDQSADTWQPCGGK(Propionyl)-NH2
modifications: thioether N-14
B13: Compound 61a (peptide)
peptide: {CH2CO}-FNFEDQAPDTWQPCGGK-NH2
modifications: thioether N-14
SMILES: C[C@@H]1NC(=O)[C@H](CCC(N)=O)NC(=O)[C@H](CC(=O)O)NC(=O)[C@H](CCC(=O)O)NC(=O)[C@H](Cc2ccccc2)NC(=O)[C@H](CC(N)=O)NC(=O)[C@H](Cc2ccccc2)NC(=O)CSC[C@@H](C(=O)NCC(=O)NCC(=O)N[C@@H](CCCCN)C(N)=O)NC(=O)[C@@H]2CCCN2C(=O)[C@H](CCC(N)=O)NC(=O)[C@H](Cc2c[nH]c3ccccc23)NC(=O)[C@H]([C@@H](C)O)NC(=O)[C@H](CC(=O)O)NC(=O)[C@@H]2CCCN2C1=O
B14: Compound 9a (peptide)
peptide: {CH2CO}-FNFEDQSADTWQPCGGK(AF647)-NH2
modifications: thioether N-14
B15: Compound 26a (peptide)
peptide: {CH2CO}-FNFEDQSADTWQPCGGK-NH2
modifications: thioether N-14
notes: also called 2b
B16: Compound 81a (peptide)
peptide: {CH2CO}-FNFEDQSANTWQPCG-NH2
modifications: thioether N-14
SMILES: C[C@@H]1NC(=O)[C@H](CO)NC(=O)[C@H](CCC(N)=O)NC(=O)[C@H](CC(=O)O)NC(=O)[C@H](CCC(=O)O)NC(=O)[C@H](Cc2ccccc2)NC(=O)[C@H](CC(N)=O)NC(=O)[C@H](Cc2ccccc2)NC(=O)CSC[C@@H](C(=O)NCC(N)=O)NC(=O)[C@@H]2CCCN2C(=O)[C@H](CCC(N)=O)NC(=O)[C@H](Cc2c[nH]c3ccccc23)NC(=O)[C@H]([C@@H](C)O)NC(=O)[C@H](CC(N)=O)NC1=O
B17: Compound 85a (peptide)
peptide: {CH2CO}-FNFEDQSAITWQPCG-NH2
modifications: thioether N-14
SMILES: CC[C@H](C)[C@@H]1NC(=O)[C@H](C)NC(=O)[C@H](CO)NC(=O)[C@H](CCC(N)=O)NC(=O)[C@H](CC(=O)O)NC(=O)[C@H](CCC(=O)O)NC(=O)[C@H](Cc2ccccc2)NC(=O)[C@H](CC(N)=O)NC(=O)[C@H](Cc2ccccc2)NC(=O)CSC[C@@H](C(=O)NCC(N)=O)NC(=O)[C@@H]2CCCN2C(=O)[C@H](CCC(N)=O)NC(=O)[C@H](Cc2c[nH]c3ccccc23)NC(=O)[C@H]([C@@H](C)O)NC1=O
B18: Compound 84a (peptide)
peptide: {CH2CO}-FNFEDQSAVTWQPCG-NH2
modifications: thioether N-14
SMILES: CC(C)[C@@H]1NC(=O)[C@H](C)NC(=O)[C@H](CO)NC(=O)[C@H](CCC(N)=O)NC(=O)[C@H](CC(=O)O)NC(=O)[C@H](CCC(=O)O)NC(=O)[C@H](Cc2ccccc2)NC(=O)[C@H](CC(N)=O)NC(=O)[C@H](Cc2ccccc2)NC(=O)CSC[C@@H](C(=O)NCC(N)=O)NC(=O)[C@@H]2CCCN2C(=O)[C@H](CCC(N)=O)NC(=O)[C@H](Cc2c[nH]c3ccccc23)NC(=O)[C@H]([C@@H](C)O)NC1=O
B19: Compound 82a (peptide)
peptide: {CH2CO}-FNFEDQSATTWQPCG-NH2
modifications: thioether N-14
SMILES: C[C@@H]1NC(=O)[C@H](CO)NC(=O)[C@H](CCC(N)=O)NC(=O)[C@H](CC(=O)O)NC(=O)[C@H](CCC(=O)O)NC(=O)[C@H](Cc2ccccc2)NC(=O)[C@H](CC(N)=O)NC(=O)[C@H](Cc2ccccc2)NC(=O)CSC[C@@H](C(=O)NCC(N)=O)NC(=O)[C@@H]2CCCN2C(=O)[C@H](CCC(N)=O)NC(=O)[C@H](Cc2c[nH]c3ccccc23)NC(=O)[C@H]([C@@H](C)O)NC(=O)[C@H]([C@@H](C)O)NC1=O
B20: Compound 47a (peptide)
peptide: {CH2CO}-FNFEDQSPDT[Trp(5-F)]QPCG-NH2
modifications: thioether N-14
B21: Compound 49a (peptide)
peptide: {CH2CO}-FNFEDQSPDTWQ[Pro(trans-4-F)]CG-NH2
modifications: thioether N-14

Bridge positions count the residues as written; N and C are the ends. Square brackets hold non-standard residues; d marks the D form. * marks the point of attachment. NOTA‑1 = 1,4,7-triazacyclononane-N,N',N''-triacetic acid phenyl thiourea; Pro(cis-4-Ph) = O=C(O)[C@@H]1C[C@H](c2ccccc2)CN1; Peg4 = polyethylene glycol with 4 units (PEG4); Trp(5-F) = N[C@@H](Cc1c[nH]c2ccc(F)cc12)C(=O)O; Pro(trans-4-F) = O=C(O)[C@@H]1C[C@@H](F)CN1; Phe(4-F) = N[C@@H](Cc1ccc(F)cc1)C(=O)O; Phe(4-Me) = Cc1ccc(C[C@H](N)C(=O)O)cc1; Tic = O=C(O)[C@@H]1Cc2ccccc2CN1; Pip = O=C(O)[C@@H]1CCCCN1; Aze = O=C(O)[C@@H]1CCN1; Propionyl = CCC(=O)*

T1 sequence (P10144 21-247 limits assumed): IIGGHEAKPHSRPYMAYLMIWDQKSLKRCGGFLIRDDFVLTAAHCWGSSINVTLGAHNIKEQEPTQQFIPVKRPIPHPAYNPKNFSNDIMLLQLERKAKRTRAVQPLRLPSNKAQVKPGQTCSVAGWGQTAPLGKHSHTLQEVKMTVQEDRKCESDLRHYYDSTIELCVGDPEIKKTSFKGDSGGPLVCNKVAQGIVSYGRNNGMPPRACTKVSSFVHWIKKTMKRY

The experiment concerns the target T1, human Granzyme B (human, UniProt P10144 21-247).
T1 construct: Captured on a Series S Streptavidin chip for SPR; also called hGranzyme B; GzmB
Nature of the experiment: SPR, Biacore 8k+, hGranzyme B captured on SA chip, single cycle kinetics, 1:1 model.
The term Kd denotes the free concentration of one partner at which half of the binding sites on the other are occupied at equilibrium, for simple one-to-one binding. A high value points to lower affinity. B1 registered an equilibrium dissociation constant (Kd) of 4.6 nM.
In turn, B2 came in with a dissociation constant Kd of 28.3 nM.
Then B3, with 4.4 nM; and B4, with 4.9 nM.
Then B5, with 8.1 nM; and B6, with 19.6 nM.
Then B7, with 28.6 nM; and B8, with 3.1 nM.
Turning to B9, the Kd was found to be 15.1 nM.
With B10, the Kd came out at 19 nM.
As to B11, the affinity, expressed as Kd, was 27.5 nM.
With B12, the Kd turned out to be 11.7 nM.
In the case of B13 it was 6.3 nM.
In the case of B14, the Kd came to 13 nM.
With B15, the Kd was 15.4 nM.
The molecule B16 showed a Kd of 43.4 nM.
Molecule B17 showed a Kd of 58.3 nM.
Then B18, with 52.2 nM; and B19, with 45.8 nM.
In the case of B20, the affinity, expressed as Kd, was 4.1 nM.
B21 gave a Kd of 4.5 nM.

Source of the values: patent US20260207798A1, “CYCLIC PEPTIDES AS PET IMAGING AGENTS OF GRANZYME B” (priority 2022, published 2026).
